These results are taken from PMC4351158 (Structure (London, England : 1993), 2015).

The test concerns periplasmic domain of RseA. Kind of test: Cleavage of 35S-labeled RseA periplasmic domain by DegS variants. The format is biochemical, E. coli. To be noted: for YYF-stimulated cleavage activity, in words / YYF-stimulated cleavage activity relative to wild type: WT background; for YYF-stimulated cleavage activity, in words: compared to wild-type DegS; for YYF-stimulated cleavage activity relative to wild type / YYF-stimulated cleavage activity relative to H198P parental enzyme: with YYF; for YYF-stimulated cleavage activity relative to wild type: % of wild-type activity; for YYF-stimulated cleavage activity relative to H198P parental enzyme: H198P background, % of H198P parent.

B1: R178A: DegS variant R178A (protein)
chain: RSLNPLSTPQFDSTDETPASYNLAVRRAAPAVVNVYNRGLNTNSHNQLEIRTLGSGVIMDQRGYIITNKHVINDADQIIVALQDGRVFEALLVGSDSLTDLAVLKINATGGLPTIPINARRVPHIGDVVLAIGNPYNLGQTITQGIISATGAIGLNPTGRQNFLQTDASINHGNSGGALVNSLGELMGINTLSFDKSNDGETPEGIGFAIPFQLATKIMDKLIRDGRVIRGYIGIGGREIAPLHAQGGGIDQLQGIVVNEVSPDGPAANAGIQVNDLIISVDNKPAISALETMDQVAEIRPGSVIPVVVMRDDKQLTLQVTIQEYPATN
modifications: left off: His6, N-terminal, state not stated
B1: the “YYF-stimulated cleavage activity, in words” value is recorded as “almost no cleavage activity”.

B2: Y162A: DegS variant Y162A (protein)
chain: RSLNPLSTPQFDSTDETPASYNLAVRRAAPAVVNVYNRGLNTNSHNQLEIRTLGSGVIMDQRGYIITNKHVINDADQIIVALQDGRVFEALLVGSDSLTDLAVLKINATGGLPTIPINARRVPHIGDVVLAIGNPANLGQTITQGIISATGRIGLNPTGRQNFLQTDASINHGNSGGALVNSLGELMGINTLSFDKSNDGETPEGIGFAIPFQLATKIMDKLIRDGRVIRGYIGIGGREIAPLHAQGGGIDQLQGIVVNEVSPDGPAANAGIQVNDLIISVDNKPAISALETMDQVAEIRPGSVIPVVVMRDDKQLTLQVTIQEYPATN
modifications: left off: His6, N-terminal, state not stated
In the case of B2, the “YYF-stimulated cleavage activity relative to wild type” value is given as “less than 2%”.

B3: P161A: DegS variant P161A (protein)
chain: RSLNPLSTPQFDSTDETPASYNLAVRRAAPAVVNVYNRGLNTNSHNQLEIRTLGSGVIMDQRGYIITNKHVINDADQIIVALQDGRVFEALLVGSDSLTDLAVLKINATGGLPTIPINARRVPHIGDVVLAIGNAYNLGQTITQGIISATGRIGLNPTGRQNFLQTDASINHGNSGGALVNSLGELMGINTLSFDKSNDGETPEGIGFAIPFQLATKIMDKLIRDGRVIRGYIGIGGREIAPLHAQGGGIDQLQGIVVNEVSPDGPAANAGIQVNDLIISVDNKPAISALETMDQVAEIRPGSVIPVVVMRDDKQLTLQVTIQEYPATN
modifications: left off: His6, N-terminal, state not stated
For B3, the “YYF-stimulated cleavage activity relative to wild type” value is “less than 2%”.

B4: T167V: DegS variant T167V (protein)
chain: RSLNPLSTPQFDSTDETPASYNLAVRRAAPAVVNVYNRGLNTNSHNQLEIRTLGSGVIMDQRGYIITNKHVINDADQIIVALQDGRVFEALLVGSDSLTDLAVLKINATGGLPTIPINARRVPHIGDVVLAIGNPYNLGQVITQGIISATGRIGLNPTGRQNFLQTDASINHGNSGGALVNSLGELMGINTLSFDKSNDGETPEGIGFAIPFQLATKIMDKLIRDGRVIRGYIGIGGREIAPLHAQGGGIDQLQGIVVNEVSPDGPAANAGIQVNDLIISVDNKPAISALETMDQVAEIRPGSVIPVVVMRDDKQLTLQVTIQEYPATN
modifications: left off: His6, N-terminal, state not stated
Consider B4, for which the “YYF-stimulated cleavage activity relative to wild type” value is reported as “less than 2%”.

B5: L164A: DegS variant L164A (protein)
chain: RSLNPLSTPQFDSTDETPASYNLAVRRAAPAVVNVYNRGLNTNSHNQLEIRTLGSGVIMDQRGYIITNKHVINDADQIIVALQDGRVFEALLVGSDSLTDLAVLKINATGGLPTIPINARRVPHIGDVVLAIGNPYNAGQTITQGIISATGRIGLNPTGRQNFLQTDASINHGNSGGALVNSLGELMGINTLSFDKSNDGETPEGIGFAIPFQLATKIMDKLIRDGRVIRGYIGIGGREIAPLHAQGGGIDQLQGIVVNEVSPDGPAANAGIQVNDLIISVDNKPAISALETMDQVAEIRPGSVIPVVVMRDDKQLTLQVTIQEYPATN
modifications: left off: His6, N-terminal, state not stated
As for B5, the “YYF-stimulated cleavage activity relative to wild type” value is given as “less than 2%”.

B6: F220A: DegS variant F220A (protein)
chain: RSLNPLSTPQFDSTDETPASYNLAVRRAAPAVVNVYNRGLNTNSHNQLEIRTLGSGVIMDQRGYIITNKHVINDADQIIVALQDGRVFEALLVGSDSLTDLAVLKINATGGLPTIPINARRVPHIGDVVLAIGNPYNLGQTITQGIISATGRIGLNPTGRQNFLQTDASINHGNSGGALVNSLGELMGINTLSADKSNDGETPEGIGFAIPFQLATKIMDKLIRDGRVIRGYIGIGGREIAPLHAQGGGIDQLQGIVVNEVSPDGPAANAGIQVNDLIISVDNKPAISALETMDQVAEIRPGSVIPVVVMRDDKQLTLQVTIQEYPATN
modifications: left off: His6, N-terminal, state not stated
With B6, the “YYF-stimulated cleavage activity, in words” value is recorded as “almost no cleavage activity”.

B7: T169A: DegS variant T169A (protein)
chain: RSLNPLSTPQFDSTDETPASYNLAVRRAAPAVVNVYNRGLNTNSHNQLEIRTLGSGVIMDQRGYIITNKHVINDADQIIVALQDGRVFEALLVGSDSLTDLAVLKINATGGLPTIPINARRVPHIGDVVLAIGNPYNLGQTIAQGIISATGRIGLNPTGRQNFLQTDASINHGNSGGALVNSLGELMGINTLSFDKSNDGETPEGIGFAIPFQLATKIMDKLIRDGRVIRGYIGIGGREIAPLHAQGGGIDQLQGIVVNEVSPDGPAANAGIQVNDLIISVDNKPAISALETMDQVAEIRPGSVIPVVVMRDDKQLTLQVTIQEYPATN
modifications: left off: His6, N-terminal, state not stated
Turning to B7, the “YYF-stimulated cleavage activity relative to wild type” value is given as “less than 2%”.

B8: R178A/H198P (protein, UniProt P0AEE3 1-355, looked up, variant R178A H198P)
Serine endoprotease DegS: MFVKLLRSVAIGLIVGAILLVAMPSLRSLNPLSTPQFDSTDETPASYNLAVRRAAPAVVNVYNRGLNTNSHNQLEIRTLGSGVIMDQRGYIITNKHVINDADQIIVALQDGRVFEALLVGSDSLTDLAVLKINATGGLPTIPINARRVPHIGDVVLAIGNPYNLGQTITQGIISATGAIGLNPTGRQNFLQTDASINPGNSGGALVNSLGELMGINTLSFDKSNDGETPEGIGFAIPFQLATKIMDKLIRDGRVIRGYIGIGGREIAPLHAQGGGIDQLQGIVVNEVSPDGPAANAGIQVNDLIISVDNKPAISALETMDQVAEIRPGSVIPVVVMRDDKQLTLQVTIQEYPATN
As to B8, the “YYF-stimulated cleavage activity relative to H198P parental enzyme” value is 9–24%.

B9: F220A/H198P (protein, UniProt P0AEE3 1-355, looked up, variant F220A H198P)
Serine endoprotease DegS: MFVKLLRSVAIGLIVGAILLVAMPSLRSLNPLSTPQFDSTDETPASYNLAVRRAAPAVVNVYNRGLNTNSHNQLEIRTLGSGVIMDQRGYIITNKHVINDADQIIVALQDGRVFEALLVGSDSLTDLAVLKINATGGLPTIPINARRVPHIGDVVLAIGNPYNLGQTITQGIISATGRIGLNPTGRQNFLQTDASINPGNSGGALVNSLGELMGINTLSADKSNDGETPEGIGFAIPFQLATKIMDKLIRDGRVIRGYIGIGGREIAPLHAQGGGIDQLQGIVVNEVSPDGPAANAGIQVNDLIISVDNKPAISALETMDQVAEIRPGSVIPVVVMRDDKQLTLQVTIQEYPATN
Turning to B9, the “YYF-stimulated cleavage activity relative to H198P parental enzyme” value is 9–24%.
